The source of these data is publication PMC11312540 (bioRxiv, 2024).

In this assay the target is SH3 domain of Src (residues 83–141) with C-terminal FLAG-tag (chicken, UniProt P00523 83-141). Nature of the assay: bimane fluorescence.

B1: βarr1-MC-393 V70C labeled with monobromobimane (domain or fragment, rat, UniProt P29066 1-393, looked up)
chain: MGDKGTRVFKKASPNGKLTVYLGKRDFVDHIDLVDPVDGVVLVDPEYLKERRVYVTLTAAFRYGREDLDCLGLTFRKDLFVANVQSFPPAPEDKKPLTRLQERLIKKLGEHAYPFTFEIPPNLPSSVTLQPGPEDTGKAIGVDYEVKAFVAENLEEKIHKRNSVRLVIRKVQYAPERPGPQPTAETTRQFLMSDKPLHLEASLDKEIYYHGEPISVNVHVTNNTNKTVKKIKISVRQYADIVLFNTAQYKVPVAMEEADDTVAPSSTFSKVYTLTPFLANNREKRGLALDGKLKHEDTNLASSTLLREGANREILGIIVSYKVKVKLVVSRGGLLGDLASSDVAVELPFTLMHPKPKEEPPHREVPESETPVDTNLIELDTNDDDIVFEDFAR
modifications: monobromobimane (mBr) on C70
As to B1, the binding result is “binds”.
